Read-outs that look alike come from different tables or passages of the source.
How the values were obtained:
[1] = target: CH505 M11 gp120 (HIV-1); assay: ELISA, gp120 on plate
[2] = target: CH505 M5 gp120 (HIV-1); assay: ELISA, gp120 on plate
[3] = target: CH505 w020.14 gp120 (HIV-1); assay: ELISA, gp120 on plate
[4] = target: CH505 w030.28 gp120 (HIV-1); assay: ELISA, gp120 on plate
[5] = target: CH505 w053.31 gp120 (HIV-1); assay: ELISA, gp120 on plate
[6] = target: CH0505.w4.3 Env, Env-pseudotyped virus produced in 293T cells (HIV-1); assay: cell-based or functional assay
[7] = target: CH0505TF.G458Y Env, Env-pseudotyped virus produced in 293T cells (HIV-1); assay: cell-based or functional assay
[8] = target: CH0505TF.G458Y Env, pseudotyped virus produced in 293S GnTI- cells (HIV-1); assay: cell-based or functional assay
[9] = target: CH0505TF.gly3.197 Env, Env-pseudotyped virus produced in 293T cells (HIV-1); assay: cell-based or functional assay
[10] = target: CH0505TF.gly3.276 Env, Env-pseudotyped virus produced in 293T cells (HIV-1); assay: cell-based or functional assay
[11] = target: CH0505TF.gly3.276 Env, pseudotyped virus produced in 293S GnTI- cells (HIV-1); assay: cell-based or functional assay
[12] = target: CH0505TF.gly3.461 Env, Env-pseudotyped virus produced in 293T cells (HIV-1); assay: cell-based or functional assay
[13] = target: CH0505TF.gly3.461 Env, pseudotyped virus produced in 293S GnTI- cells (HIV-1); assay: cell-based or functional assay
[14] = target: CH0505TF.gly4 Env, Env-pseudotyped virus produced in 293T cells (HIV-1); assay: cell-based or functional assay
[15] = target: CH0505TF.gly4 Env, pseudotyped virus produced in 293S GnTI- cells (HIV-1); assay: cell-based or functional assay
[16] = target: HIV-1 426c.DM (N460D/N463D) Env on Env-pseudotyped virus produced in 293T cells (HIV-1); assay: cell-based or functional assay
[17] = target: HIV-1 426c.DM (N460D/N463D) Env on Env-pseudotyped virus produced in 293s/GnTI-/- cells (Man5-enrichment) (HIV-1); assay: cell-based or functional assay
[18] = target: HIV-1 426c.SM (N276D) Env on Env-pseudotyped virus produced in 293T cells (HIV-1); assay: cell-based or functional assay
[19] = target: HIV-1 426c.SM (N276D) Env on Env-pseudotyped virus produced in 293s/GnTI-/- cells (Man5-enrichment) (HIV-1); assay: cell-based or functional assay
[20] = target: HIV-1 426c.TM (N276D/N460D/N463D) Env on Env-pseudotyped virus produced in 293T cells (HIV-1); assay: cell-based or functional assay
[21] = target: HIV-1 CH0505TF (CH505 transmitted/founder) Env on Env-pseudotyped virus produced in 293T cells (HIV-1); assay: cell-based or functional assay
[22] = target: HIV-1 CH0505TF.gly3.197 Env on Env-pseudotyped virus produced in 293S/GnTI-/- cells (Man5-enrichment) (HIV-1); assay: cell-based or functional assay
[23] = target: HIV-1 CH0505TF.gly4 Env on Env-pseudotyped virus produced in 293T cells (HIV-1); assay: cell-based or functional assay
[24] = target: HIV-1 Env 426c, Env-pseudotyped virus produced in 293S GnTI- cells (Man5-enriched) (HIV-1 clade C strain 426c); assay: cell-based or functional assay
[25] = target: HIV-1 Env 426c.DM (N460D.N463D), Env-pseudotyped virus produced in 293T cells (HIV-1 clade C strain 426c); assay: cell-based or functional assay
[26] = target: HIV-1 Env 426c.SM (N276D), Env-pseudotyped virus produced in 293S GnTI- cells (Man5-enriched) (HIV-1 clade C strain 426c); assay: cell-based or functional assay
[27] = target: HIV-1 Env 426c.TM (N276D.N460D.N463D), Env-pseudotyped virus produced in 293S GnTI- cells (Man5-enriched) (HIV-1 clade C strain 426c); assay: cell-based or functional assay
[28] = target: HIV-1 Env 426c.TM4 (S278R.G471S.N460D.N463D), Env-pseudotyped virus produced in 293S GnTI- cells (Man5-enriched) (HIV-1 clade C strain 426c); assay: cell-based or functional assay
[29] = target: HIV-1 clade C strain 426c Env on Env-pseudotyped virus produced in 293T cells (HIV-1); assay: cell-based or functional assay
[30] = target: HIV-1 clade C strain 426c Env on Env-pseudotyped virus produced in 293s/GnTI-/- cells (Man5-enrichment) (HIV-1); assay: cell-based or functional assay
[31] = target: HIV-1 CH0505TF (CH505 transmitted/founder) Env on Env-pseudotyped virus produced in 293T cells (HIV-1); assay: cell-based or functional assay; remark: listed apart in the source
[32] = target: HIV-1 CH0505TF Env on Env-pseudotyped virus produced in 293S/GnTI-/- cells (Man5-enrichment) (HIV-1); assay: cell-based or functional assay
[33] = target: HIV-1 CH0505TF.G458Y Env on Env-pseudotyped virus produced in 293T cells (HIV-1); assay: cell-based or functional assay
[34] = target: HIV-1 CH0505TF.N280D Env on Env-pseudotyped virus produced in 293S GnTI- cells (HIV-1); assay: cell-based or functional assay
[35] = target: HIV-1 CH0505TF.N280D Env on Env-pseudotyped virus produced in 293T cells (HIV-1); assay: cell-based or functional assay
[36] = target: HIV-1 CH0505TF.S365P Env on Env-pseudotyped virus produced in 293S GnTI- cells (HIV-1); assay: cell-based or functional assay
[37] = target: HIV-1 CH0505TF.S365P Env on Env-pseudotyped virus produced in 293T cells (HIV-1); assay: cell-based or functional assay

Row | Substance | log AUC [1] | log AUC [2] | log AUC [3] | log AUC [4] | log AUC [5] | IC50 (µg/ml) in TZM-bl [6] | IC50 (µg/ml) in TZM-bl [7] | IC50 (µg/ml) in TZM-bl [8] | IC50 (µg/ml) in TZM-bl [9] | IC50 (µg/ml) in TZM-bl [10] | IC50 (µg/ml) in TZM-bl [11] | IC50 (µg/ml) in TZM-bl [12] | IC50 (µg/ml) in TZM-bl [13] | IC50 (µg/ml) in TZM-bl [14] | IC50 (µg/ml) in TZM-bl [15] | ID50/IC50 in TZM-bl [16] | ID50/IC50 in TZM-bl [17] | ID50/IC50 in TZM-bl [18] | ID50/IC50 in TZM-bl [19] | ID50/IC50 in TZM-bl [20] | further results
1 | CH103 (antibody) | 13.4 log AUC | 9.8 log AUC | 12.6 log AUC | 12.8 log AUC | 13.6 log AUC | 0.31 µg/mL | 6.4 µg/mL | 0.44 µg/mL | 1.6 µg/mL | 0.014 µg/mL | 0.007 µg/mL | 0.014 µg/mL | 0.009 µg/mL | 0.002 µg/mL | 0.005 µg/mL | 6.1 µg/mL | 0.63 µg/mL | > 40 µg/mL | 2.2 µg/mL | 5.2 µg/mL | IC50 (ug/ml) in TZM-bl cells [21]: 2.6 µg/mL; IC50 (ug/ml) in TZM-bl cells [22]: 0.19 µg/mL; IC50 (ug/ml) in TZM-bl cells [23]: 0.01 µg/mL; IC50 (µg/ml) in TZM-bl [24]: 5.3 µg/mL; IC50 (µg/ml) in TZM-bl [25]: 6.1 µg/mL; IC50 (µg/ml) in TZM-bl [26]: 2.2 µg/mL; IC50 (µg/ml) in TZM-bl [27]: 0.09 µg/mL; IC50 (µg/ml) in TZM-bl [28]: 0.48 µg/mL; ID50/IC50 in TZM-bl [29]: > 40 µg/mL; ID50/IC50 in TZM-bl [30]: 5.3 µg/mL; IC50 (µg/ml) in TZM-bl [31]: 1.9 µg/mL; IC50 (µg/ml) in TZM-bl [32]: 0.57 µg/mL; IC50 (µg/ml) in TZM-bl [33]: 5.8 µg/mL; IC50 (µg/ml) in TZM-bl [34]: 0.24 µg/mL; IC50 (µg/ml) in TZM-bl [35]: 1.2 µg/mL; IC50 (µg/ml) in TZM-bl [36]: 1.7 µg/mL; IC50 (µg/ml) in TZM-bl [37]: > 50 µg/mL
2 | CH235 (antibody) | 7.6 log AUC | 11.4 log AUC | 9.9 log AUC | 6.7 log AUC | 1.1 log AUC | 0.4 µg/mL | 0.1 µg/mL | < 0.02 µg/mL | 0.16 µg/mL | 0.034 µg/mL | 0.02 µg/mL | 0.086 µg/mL | 0.011 µg/mL | 0.022 µg/mL | 0.004 µg/mL | > 50 µg/mL | > 25 µg/mL | > 50 µg/mL | > 25 µg/mL | > 50 µg/mL | IC50 (µg/ml) in TZM-bl cells [8]: < 0.005 µg/mL; IC50 (ug/ml) in TZM-bl cells [21]: 0.35 µg/mL; IC50 (µg/ml) in TZM-bl [21]: 0.35 µg/mL; IC50 (ug/ml) in TZM-bl cells [22]: 0.006 µg/mL; IC50 (ug/ml) in TZM-bl cells [23]: 0.022 µg/mL; IC50 (µg/ml) in TZM-bl [24]: > 25 µg/mL; IC50 (µg/ml) in TZM-bl [25]: > 50 µg/mL; IC50 (µg/ml) in TZM-bl [26]: > 25 µg/mL; IC50 (µg/ml) in TZM-bl [27]: > 25 µg/mL; IC50 (µg/ml) in TZM-bl [28]: > 25 µg/mL; ID50/IC50 in TZM-bl [29]: > 50 µg/mL; ID50/IC50 in TZM-bl [30]: > 25 µg/mL; IC50 (µg/ml) in TZM-bl [31]: 0.3 µg/mL; IC50 (µg/ml) in TZM-bl [32]: 0.03 µg/mL; IC50 (µg/ml) in TZM-bl [33]: 0.1 µg/mL; IC50 (µg/ml) in TZM-bl [34]: 3.4 µg/mL; IC50 (µg/ml) in TZM-bl [35]: > 25 µg/mL; IC50 (µg/ml) in TZM-bl [36]: 0.02 µg/mL; IC50 (µg/ml) in TZM-bl [37]: 0.6 µg/mL

— patent US20230140293A1
